Laboratory results: US20200263187A1, “A METHOD FOR EXPRESSION OF A PROKARYOTIC MEMBRANE PROTEIN IN AN EUKARYOTIC ORGANISM, PRODUCTS AND USES THEREOF” (Universidade Do Minho, priority 2017, published 2020)
Where two headings read alike, the source gives them in different places.

Assays:
[1] = test system: hxt null mutant EBY.4000 strain; settings: HXT1 expressed in EBY.4000, Özcan and Johnston 1999, cited from earlier work
[2] = test system: S. cerevisiae W303-1A jen1Δ ady2Δ cells; assay type: cell-based; settings: for Kd (diffusion component) for lactate, non-mediated transport: cells grown in YNB lactic acid
Experimental: FIG. 4. Initial uptake rates of the radiolabelled 14C -Lactic acid at different concentrations. S. cerevisaie W303-1A jen1 Δady2Δ cells containing the plasmid pNJ-LctP-CJ-GFP and pNJ-LIdp-CJ-GFP were grown in YNB Lactic acid medium at pH 5.5 and 30° C., until mid-exponential growth phase.
In an embodiment, to confirm the successful heterologous expression of transporters in this system several studies were carried out as described in (Soares-Silva, et al. 2015): radiolabelled lactate uptake assays, growth assays in solid minimal medium with carboxylates or sugars as sole carbon source and fluorescence microscopy to detect the location of GFP fusion proteins.
The growth of the S. cerevisiae ady2Δjen1Δ strain expressing the NJ-LldP-CJ-GFP protein and control strains were evaluated in YNB media (supplemented according to the required auxotrophies) containing lactic acid (0.5%) pH 5.5 at 18° C. The S. cerevisiae ady2Δjen1Δ strains expressing the native LIdP (pLIdP), the empty vector (p416GPD) and the ScJen1p (pDS1) were used as controls.
As a control the IctP gene was cloned in the p416GPD vector. For this construct the IctP gene was amplified from S. aureus genomic DNA using the primers LcFWD and LcREV (Table 1) and inserted and ligated in the p416GPD vector using the restriction enzymes BamHI and EcoRI. […] The growth of S. cerevisiae strains was tested in YNB media (supplemented according to the required auxotrophies) containing lactic acid 0.5% (pH 5.5).

[3] = test system: S. cerevisiae W303-1A lactic acid-grown cells; settings: cited from earlier work

B1: HXT1: S. cerevisiae low affinity glucose transporter, positive control (protein, UniProt P32465 1-570, looked up)
Low-affinity glucose …: MNSTPDLISPQKSNSSNSYELESGRSKAMNTPEGKNESFHDNLSESQVQPAVAPPNTGKGVYVTVSICCVMVAFGGFIFGWDTGTISGFVAQTDFLRRFGMKHHDGSHYLSKVRTGLIVSIFNIGCAIGGIVLAKLGDMYGRRIGLIVVVVIYTIGIIIQIASINKWYQYFIGRIISGLGVGGITVLSPMLISEVAPSEMRGTLVSCYQVMITLGIFLGYCTNFGTKNYSNSVQWRVPLGLCFAWALFMIGGMMFVPESPRYLVEAGRIDEARASLAKVNKCPPDHPYIQYELETIEASVEEMRAAGTASWGELFTGKPAMFQRTMMGIMIQSLQQLTGDNYFFYYGTIVFQAVGLSDSFETSIVFGVVNFFSTCCSLYTVDRFGRRNCLMWGAVGMVCCYVVYASVGVTRLWPNGQDQPSSKGAGNCMIVFACFYIFCFATTWAPIAYVVISECFPLRVKSKCMSIASAANWIWGFLISFFTPFITGAINFYYGYVFMGCMVFAYFYVFFFVPETKGLSLEEVNDMYAEGVLPWKSASWVPVSKRGADYNADDLMHDDQPFYKSLFSRK
Q: For B1, which “Glucose concentration at which growth is restored” value [1] is on record?
A: above 1%

Q: And the Km ([1]; read-out: Km of low-affinity glucose transport)?
A: 100000 µM

B2: pLIdP: Native E. coli LldP lactate permease cloned in p416GPD, control without eukaryotic termini (protein, UniProt P33231 1-551, looked up)
L-lactate permease: MNLWQQNYDPAGNIWLSSLIASLPILFFFFALIKLKLKGYVAASWTVAIALAVALLFYKMPVANALASVVYGFFYGLWPIAWIIIAAVFVYKISVKTGQFDIIRSSILSITPDQRLQMLIVGFCFGAFLEGAAGFGAPVAITAALLVGLGFKPLYAAGLCLIVNTAPVAFGAMGIPILVAGQVTGIDSFEIGQMVGRQLPFMTIIVLFWIMAIMDGWRGIKETWPAVVVAGGSFAIAQYLSSNFIGPELPDIISSLVSLLCLTLFLKRWQPVRVFRFGDLGASQVDMTLAHTGYTAGQVLRAWTPFLFLTATVTLWSIPPFKALFASGGALYEWVINIPVPYLDKLVARMPPVVSEATAYAAVFKFDWFSATGTAILFAALLSIVWLKMKPSDAISTFGSTLKELALPIYSIGMVLAFAFISNYSGLSSTLALALAHTGHAFTFFSPFLGWLGVFLTGSDTSSNALFAALQATAAQQIGVSDLLLVAANTTGGVTGKMISPQSIAIACAAVGLVGKESDLFRFTVKHSLIFTCIVGVITTLQAYVLTWMIP
Q: Which results are given for B2?
A: Kd (diffusion component) for lactate, non-mediated transport ([2]; 14C-lactic acid uptake): 47 ± 2.5 µM; Kd (diffusion component) for lactate, non-mediated transport ([2]; 14C-lactic acid uptake, listed as Lldp): 43 ± 2 µM; Transport mechanism for labelled lactic acid ([2]; lactic acid uptake, pH 5.0): non-mediated transport mechanism

B3: ScJen1: S. cerevisiae lactate transporter Jen1, positive control (protein, UniProt P36035 2-616, looked up)
Carboxylic acid transporter …: SSSITDEKISGEQQQPAGRKLYYNTSTFAEPPLVDGEGNPINYEPEVYNPDHEKLYHNPSLPAQSIQDTRDDELLERVYSQDQGVEYEEDEEDKPNLSAASIKSYALTRFTSLLHIHEFSWENVNPIPELRKMTWQNWNYFFMGYFAWLSAAWAFFCVSVSVAPLAELYDRPTKDITWGLGLVLFVRSAGAVIFGLWTDKSSRKWPYITCLFLFVIAQLCTPWCDTYEKFLGVRWITGIAMGGIYGCASATAIEDAPVKARSFLSGLFFSAYAMGFIFAIIFYRAFGYFRDDGWKILFWFSIFLPILLIFWRLLWPETKYFTKVLKARKLILSDAVKANGGEPLPKANFKQKMVSMKRTVQKYWLLFAYLVVLLVGPNYLTHASQDLLPTMLRAQLGLSKDAVTVIVVVTNIGAICGGMIFGQFMEVTGRRLGLLIACTMGGCFTYPAFMLRSEKAILGAGFMLYFCVFGVWGILPIHLAELAPADARALVAGLSYQLGNLASAAASTIETQLADRYPLERDASGAVIKEDYAKVMAILTGSVFIFTFACVFVGHEKFHRDLSSPVMKKYINQVEEYEADGLSISDIVEQKTECASVKMIDSNVSKTYEEHIETV
modifications: GFP fusion
notes: S. cerevisiae lactate transporter Jen1, positive control
Q: Which Km ([3]; Casal 1999, Paiva 2013, read-out: Km for lactate uptake) does the source give for B3 here?
A: 290 µM

Q: What about the “Vmax for lactate uptake” value ([3]; Casal 1999, Paiva 2013) of the same molecule?
A: 0.40 nmol of lactic acid s1 mg of dry weight1

Q: What about the “Vmax for lactic acid uptake” value ([2]; 14C-lactic acid uptake, pH 5.0, cells grown in YNB lactic acid pH 5.5, 30° C., mid-exponential phase) of the same molecule?
A: 0.23±0.01 nmol s-1 mg-1 dry wt

Q: And the Km ([2]; 14C-lactic acid uptake, pH 5.0, cells grown in YNB lactic acid pH 5.5, 30° C., mid-exponential phase, read-out: Km for lactic acid uptake)?
A: 270 ± 40 µM

Q: What about the “Vmax for lactic acid uptake (unit not given)” value ([2]; positive control in FIG. 4 legend, 14C-lactic acid) of the same molecule?
A: 0.23

Q: And the Km ([2]; positive control in FIG. 4 legend, 14C-lactic acid, read-out: Km value for lactic acid uptake (unit inferred))?
A: 270 µM
